# Reference: the supplement of paper PMC10126150
# ± gives the standard deviation of the averaged measurements.
# Test system: ATP
# Assay: switch fluorescence ratio, 500 uM ATP over buffer (Cy3 cluster intensity, sum of 5 cycles each) (fold (ratio)); higher = stronger signal-on switching upon ATP binding; sequences stand for … in TCGTCGGCAGCGTCAGATGTGTATAAGAGACAGTTTTTTTTTTTTTTTTTTTTTTTTT…TC
# Conditions: aptamer strand: ATP DNA aptamer (quencher-CACCTGGGGGAGTATTGCGGAGGAAGG + anchor), 100 nM annealed; ATP concentration: 500 uM
# Method in brief: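 Imaging in selection buffer was followed by imaging after 15 min with 500 uM ATP at 22 °C, for Cy3-labelled switching-strand clusters annealed to 100 nM quencher-labelled ATP aptamer on a modified Illumina MiSeq flow-cell. Five of these buffer/ATP cycles ran, separated by NaOH stripping and re-annealing. The fluorescence ratio per cluster is summed target-cycle over summed buffer-cycle Cy3 intensity, averaged per switch-domain sequence; clusters outside 100-1000 RFU were removed.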
# 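Note: ATP exposure 15 min at 22 °C before imaging.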
row,Sequence,switch fluorescence ratio
1,CATCGATGGT,1.004 ± 0.0026
2,TCTGGATATT,1.01 ± 0.025
3,AGGTAGTAAG,0.995 ± 0.031
4,AAAAAAGGGT,1.02 ± 0.021
5,TGGGAAGAGT,0.996 ± 0.028
6,GGAAAACCAG,0.982 ± 0.048
7,AGTAAGGGAG,1.01 ± 0.082
8,GGTGTTTATC,1 ± 0.014
9,TTGAATCAAG,1.01 ± 0.041
10,TATAGGCCCC,0.983 ± 0.015
11,TAGGTAAGAT,0.993 ± 0.015
12,TTTTTTTTT,1.01 ± 0.021
13,TTTAAGGAGG,1.03 ± 0.071
14,GTTGCTATTT,1.0045 ± 0.00071
15,GCTGCTGTTT,1.01 ± 0.0037
16,TCGGGGGGTA,0.985 ± 0.021
17,TGGGGATGGT,0.991 ± 0.062
18,AGAGGAAGGT,1.03 ± 0.046
19,AAATATTATA,1.02 ± 0.031
20,CTGGTCATCT,0.991 ± 0.011
21,GCTTGTAGCT,1.02 ± 0.0095
22,TGAGGGTGGT,0.981 ± 0.0012
23,TTTTAGTTT,0.996 ± 0.023
24,GTTAGATTGT,0.9731 ± 0.0039
25,CTTGTGGTGG,1.006 ± 0.0089

row,Sequence,switch fluorescence ratio
1,GGATTCAGGG,1.01 ± 0.018
2,TTCATATTAT,0.9472 ± 0.0062
3,CGTCTTGGTG,0.999 ± 0.03
4,CGGAATATGG,1.0484 ± 0.001
5,TTTTGGCAGG,1.03 ± 0.037
6,TTTTTGATGT,0.994 ± 0.022
7,CGGTGGAGGG,0.9849 ± 0.0091
8,CGGAGGGTAC,1.61 ± 0.08
9,ATTAGGGGAG,0.972 ± 0.0028
10,TTTGAATGTA,1.011 ± 0.0078
11,ATCTCGTTA,1.04 ± 0.053
12,GGGGGAACCT,1.0549 ± 0.00095
13,TTTTCCGTTC,1.02 ± 0.021
14,GGAGTCATTT,1 ± 0.014
15,TTTTAATACT,1.04 ± 0.066
16,ATGAGGAAGT,0.987 ± 0.023
17,CGTCTAGAGA,1.02 ± 0.073
18,TTGGTACTGA,1.04 ± 0.049
19,TATCCAACAT,1.036 ± 0.00037
20,TGGGCGGTCT,1.03 ± 0.039
21,TTACCGGACT,1.11 ± 0.042
22,GAGTGAATTT,1.0074 ± 0.00014
23,GCTGAGGCTG,1 ± 0.032
24,TTGGGGGTAA,0.987 ± 0.018
25,GGGTGCAATT,1.05 ± 0.028

row,Sequence,switch fluorescence ratio
1,TTGTTAAGGC,1.02 ± 0.037
2,TGGAAATTGG,1.01 ± 0.02
3,TGTTGCATCG,1 ± 0.019
4,GCTCAATCTA,1.01 ± 0.006
5,CTGATGAGAG,0.997 ± 0.051
6,TTTTGTTGGG,0.991 ± 0.03
7,GTGGACGG,0.9733 ± 0.0022
8,CTGCGGGGGG,0.999 ± 0.015
9,GAGGATCAGG,1.03 ± 0.056
10,TTAGGGGTGC,1.07 ± 0.037
11,TAACTTTGGC,0.9536 ± 0.0091
12,TATAAGCGGA,0.993 ± 0.028
13,GTTGGTTCCG,0.996 ± 0.022
14,AGGTGTTGGG,1.01 ± 0.035
15,TGCCGACGGG,1.01 ± 0.019
16,ACGGTCAGGG,1.046 ± 0.0074
17,TAGTTTTAAA,1.02 ± 0.044
18,ATCGTAGGTC,0.982 ± 0.052
19,ACGGAGGGAT,1.32 ± 0.032
20,GGGGGTGATG,1 ± 0.035
21,TGCATGTCTT,0.998 ± 0.033
22,CGGGATGGAG,0.9879 ± 0.0062
23,GTATTTACTT,1.02 ± 0.012
24,CGTGGGCGCC,0.972 ± 0.026
25,GCATGCGGCT,1.03 ± 0.1

row,Sequence,switch fluorescence ratio
1,TGGATTATTG,0.9445 ± 0.0019
2,ATGGGGATAC,1.06 ± 0.026
3,GCGGCACGTG,0.97 ± 0.048
4,TTTATTGGTG,1.03 ± 0.1
5,GGGTGTAGTC,1.02 ± 0.043
6,AGTAAATAGT,1.0008 ± 3.6e-05
7,ACAAGGCAGA,1.04 ± 0.013
8,ATGAATTTGT,1.01 ± 0.032
9,TTATTAGTTT,0.994 ± 0.017
10,TTGAGCACGG,0.998 ± 0.019
11,TGTTGTAGCG,0.975 ± 0.037
12,TTATTGGCGG,1.015 ± 0.0097
13,TAGGCGGGGA,1.07 ± 0.059
14,CGACAAAGCC,1.28 ± 0.014
15,GTTTTAGGGT,1 ± 0.031
16,TGAGTGGATG,0.971 ± 0.075
17,TTGGGGGTTG,1 ± 0.044
18,GGTGTGTCGT,1.02 ± 0.017
19,CCGAATACCA,1.61 ± 0.13
20,AGTCGTACGG,1.004 ± 0.0096
21,TCGGAGAAGG,1.02 ± 0.064
22,GATTAGAAGT,0.996 ± 0.016
23,GAGTTTGAAA,0.993 ± 0.041
24,TAGAAATTAT,1.19 ± 0.38
25,TAGAATTTGG,1.01 ± 0.06

row,Sequence,switch fluorescence ratio
1,CGAACGGGGG,1 ± 0.032
2,ACTAATATAT,0.999 ± 0.04
3,TATTTTGAAG,1.07 ± 0.13
4,TATTAGAACT,1.017 ± 0.0064
5,GGGTTGCCCT,0.982 ± 0.033
6,TATTTGGGTC,0.98285 ± 0.00046
7,ATTTTTGGGT,0.994 ± 0.031
8,GACTACGGCC,1.049 ± 0.0065
9,AGGGTATGAT,0.99 ± 0.025
10,GACAATTTCT,1.02 ± 0.072
11,GGCTGTGAAC,1.02 ± 0.023
12,AATATTAGGC,1.03 ± 0.03
13,GAGGGTGGGG,1.01 ± 0.04
14,AGGAATTGAT,1.13 ± 0.27
15,CAACCGAGGC,1.18 ± 0.028
16,GGAGGGCAAA,1.01 ± 0.025
17,GGGTTAAAGA,1 ± 0.017
18,TGGTTTTGC,1.01 ± 0.023
19,ATTAAAAATC,0.968 ± 0.036
20,CGTTGCTTAG,0.988 ± 0.024
21,TTTACTTCTA,1.05 ± 0.017
22,TATCATGTTG,0.9987 ± 0.0047
23,AGTATGTGGA,0.9729 ± 0.0071
24,GTATAGGGGC,0.977 ± 0.025
25,TACAGGTTGG,1.03 ± 0.037

row,Sequence,switch fluorescence ratio
1,GAGGGGAGAG,1 ± 0.016
2,GAACCGTAAA,1.128 ± 0.0073
3,AGGCGTGGCT,0.982 ± 0.064
4,TTTTTCTTGT,1.01 ± 0.047
5,ACTTTTTATG,0.991 ± 0.035
6,GGGTATTGAT,1.01 ± 0.042
7,ACGCTCATGT,1.05 ± 0.013
8,TCGGGGTCAG,0.999 ± 0.02
9,TTATGAACTT,1 ± 0.035
10,CCTTGGTGAG,1.01 ± 0.014
11,AGATAATTTT,0.988 ± 0.014
12,CCGTCATTGT,1.11 ± 0.02
13,TCCTGTATGT,0.9981 ± 0.0018
14,TTTTTCATCC,1.18 ± 0.31
15,TGGCTAAACG,0.992 ± 0.019
16,TCCAGGACGA,1.05 ± 0.023
17,CAGCGGGATT,0.995 ± 0.036
18,AAAGCAATTG,1.077 ± 0.0065
19,ACATCTCGAT,0.996 ± 0.015
20,TTATTTGTGG,0.97 ± 0.02
21,GAAATTCTAT,0.985 ± 0.033
22,GGTGAATGCG,0.9779 ± 0.0048
23,ACAGTTGGTT,0.99 ± 0.06
24,GTACACTCAT,1.04 ± 0.031
25,TACAGGCGTA,0.9955 ± 0.0069

row,Sequence,switch fluorescence ratio
1,GGAACAGCTT,0.983 ± 0.017
2,ATTTTAACT,0.988 ± 0.013
3,GGATGAGTAT,1.02 ± 0.058
4,ACTAGTATGG,1.03 ± 0.053
5,GTCGCAAGTT,1.01 ± 0.018
6,ACCCGGACCT,1.34 ± 0.059
7,TGTTTCTGG,0.996 ± 0.036
8,ATCAGAGGGG,1.03 ± 0.019
9,CATCGTAATT,1.07 ± 0.042
10,GAGGGGAGCT,1.01 ± 0.045
11,AACATGGGTT,1.01 ± 0.031
12,TTAATGCTAA,0.99 ± 0.036
13,GGACGCCTTT,0.9753 ± 0.0077
14,TCTTGTTTGG,0.994 ± 0.049
15,AACGGTGGTC,1.03 ± 0.075
16,CTGGAGACAG,1.07 ± 0.018
17,TTTAAGCACG,1.09 ± 0.041
18,TGCAGTGGGG,1.014 ± 0.0085
19,TTTATGGTAA,0.9888 ± 0.0024
20,CGGTATTTAC,1.04 ± 0.021
21,CTGTTTAGGG,1.01 ± 0.018
22,TGTGTGATAC,1.549 ± 0.0055
23,TTTTCACGGT,1.01 ± 0.021
24,CGGGAGAGTT,0.996 ± 0.065
25,CGCGTCATGA,1.02 ± 0.0043

row,Sequence,switch fluorescence ratio
1,TAAATGGGTG,1.03 ± 0.028
2,AATCGGTCTG,1.03 ± 0.02
3,ATGAAGGGGG,1.03 ± 0.042
4,GGAGGCCAGC,1.05 ± 0.075
5,TAATATTTAA,1.05 ± 0.009
6,GTGTTAAGGT,0.99 ± 0.019
7,TCCTCACTGT,1.18 ± 0.034
8,GATTGGTTGT,1.01 ± 0.022
9,TTTTTTAGAA,1.01 ± 0.025
10,TGATGGGTC,0.9961 ± 0.0054
11,GCACTCGGCT,0.991 ± 0.0047
12,TAGGCTTATG,0.9786 ± 0.0037
13,ACGAAAATTT,1.05 ± 0.13
14,TACGATGCTT,1.2 ± 0.028
15,TTGTGATTTT,1.02 ± 0.048
16,CGTCCAGCTT,1.51 ± 0.18
17,CGGATTTGGG,0.957 ± 0.067
18,CTAGAGGGGG,0.9711 ± 0.0094
19,GTTTCTTAGC,0.998 ± 0.081
20,TTATATCAGA,1.016 ± 0.0083
21,ATATCGAGGC,0.9803 ± 0.0089
22,GGGGTATGTG,0.992 ± 0.039
23,ACCTTAAAGA,0.9915 ± 0.005
24,TTGCGGTATG,0.986 ± 0.022
25,CTAACATGTG,0.998 ± 0.03
